These results are taken from US20100254972A1.

Test [1] has as its target IL-RI-Fc (a fusion of IL-1RI and Fc). The test can be described thus: phage-displayed dAb; trypsin 10 µg/ml, 1 hr, room temp; biopanning on 1 nM IL-1RI-Fc.
Test [2] has as its target IL-1R1. The test can be described thus: Receptor Binding Assay, inhibition of IL-1 binding to IL-RI.
Test [3] deals with IL-RI-Fc (a fusion of IL-1RI and Fc). The test can be described thus: phage-displayed dAb; no trypsin, 1 hr, room temp; biopanning on 1 nM IL-1RI-Fc.
Test [4] has the same target. The test can be described thus: phage-displayed dAb; no trypsin, overnight, 37 C; biopanning on 1 nM IL-1RI-Fc.
Test [5] has the same target. The test is described as follows: phage-displayed dAb; trypsin 100 µg/ml, overnight, room temp; biopanning on 1 nM IL-1RI-Fc.
The target is the same in test [6]. The test can be described thus: phage-displayed dAb; no trypsin, overnight, room temp; biopanning on 1 nM IL-1RI-Fc.
The target is the same in test [7]. The test can be described thus: phage-displayed dAb; trypsin 10 µg/ml, overnight, 37 C; biopanning on 1 nM IL-1RI-Fc.
Test [8] shares this target. The test can be described thus: phage-displayed dAb; trypsin 100 µg/ml, overnight, 37 C; biopanning on 1 nM IL-1RI-Fc.
For test [9] the target is unchanged. The test can be described thus: phage-displayed dAb; trypsin 100 µg/ml, 1 hr, room temp; biopanning on 1 nM IL-1RI-Fc.
The target is the same in test [10]. The test can be described thus: phage-displayed dAb; trypsin 10 µg/ml, overnight, room temp; biopanning on 1 nM IL-1RI-Fc.

IL-RI-Fc (a fusion of IL-1RI and Fc), sequence (P14778 whole entry, the tested form may be a part): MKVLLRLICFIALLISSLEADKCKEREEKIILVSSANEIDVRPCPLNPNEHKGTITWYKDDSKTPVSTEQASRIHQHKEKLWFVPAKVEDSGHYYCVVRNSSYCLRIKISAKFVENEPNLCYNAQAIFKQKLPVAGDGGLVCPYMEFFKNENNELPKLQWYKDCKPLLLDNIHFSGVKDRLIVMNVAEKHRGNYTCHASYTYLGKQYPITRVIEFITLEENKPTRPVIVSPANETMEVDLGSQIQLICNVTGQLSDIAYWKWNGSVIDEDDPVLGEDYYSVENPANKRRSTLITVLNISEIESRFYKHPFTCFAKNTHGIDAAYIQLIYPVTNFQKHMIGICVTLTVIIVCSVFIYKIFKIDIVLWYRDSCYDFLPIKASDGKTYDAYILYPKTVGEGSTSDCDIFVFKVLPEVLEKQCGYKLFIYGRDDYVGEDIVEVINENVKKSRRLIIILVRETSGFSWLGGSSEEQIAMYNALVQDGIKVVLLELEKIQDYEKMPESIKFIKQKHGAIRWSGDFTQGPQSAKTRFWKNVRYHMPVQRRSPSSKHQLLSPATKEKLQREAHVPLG
IL-1R1, sequence (P14778 whole entry, the tested form may be a part): as above

B1: DOM4-130-54 (protein)
VL: DIQMTQSPSSLSASVGDRVTITCRASQDIYLNLDWYQQKPGKAPKLLINFGSELQSGVPSRFSGSGYGTDFTLTISSLQPEDFATYYCQPSFYFPYTFGQGTKVEIKR
Usually IC50 stands for the concentration that gives 50% inhibition. A high value points to a need for much substance. Consider B1, for which the titre of phage after biopanning in [1] is 7.2e+09; in test [3], 6.6e+09; in test [4], 7.2e+09; in test [5] it was 2.16e+09; in [6], 7.8e+09; in test [7] it was 3.84e+08. Besides, the titre of phage after biopanning in test [8] worked out at 2.04e+06; in test [9], 1.8e+10; in test [10] it was 7.2e+09. This molecule also had an IC50 in [2] of 280 pM.
